Substrate in data set [1]: CCn1c(=NN=c2sc3cc(S(=O)(=O)O)ccc3n2CC)sc2cc(S(=O)(=O)O)ccc21
Briefly: purified protein. The class given is biochemical, Streptomyces griseoflavus. The conditions noted are these: pH 4.0, 30 °C, Britton-Robinson buffer, 1 mM CuSO4 growth medium.

Substrate in data set [2]: COc1cccc(OC)c1O
Briefly: purified protein. The class given is biochemical, Streptomyces griseoflavus. The note with it: pH 9.0, 30 °C, Britton-Robinson buffer, 1 mM CuSO4 growth medium.

As usually defined, the Km is the concentration of substrate that gives half-maximal velocity. The kcat is the maximal rate divided by the concentration of active sites. What is called kcat/Km is the turnover number divided by the Michaelis constant.

Changes are numbered by the printed parent chain. Names may count otherwise.

B1: SgfSL wt (two-domain laccase, Streptomyces griseoflavus Small Laccase) (Streptomyces griseoflavus; I170A) (protein)
chain: AGAAPAGGEVRRVTMYAERLAGGQMGYGLEKGKASIPGPLIELNEGDTLHVEFENTMDVPVSLHVHGLDYEISSDGTKQNKSHVEPGGTRTYTWRTHEPGRRADGTWRAGSAGYWHYHDHVVGTEHGTGGARNGLYGPVIVRRKGDVLPDATHTIVFNDMTINNRPAHTGPNFEATVGDRVEIVMITHGEYYHTFHMHGHRWADNRTGMLTGPDDPSQVIDNKICGPADSFGFQIIAGEGVGAGAWMYHCHVQSHSDMGMVGLFLVKKPDGTIPGYDPQEHAH
notes: Ni-NTA purified from E. coli (pQE-30); I170A and I170F from pET32-Xa/LIC with thioredoxin tag cut by factor Xa (forward primer encodes AGAAPAGG...); homotrimer
Turning to B1, in “purified protein [1]”, the Michaelis constant (Km) stood at 630 ± 110 µM, the turnover number (kcat) is 0.7 ± 0.2 s⁻¹ and the kcat/Km was found to be 1110 M⁻¹ s⁻¹.

B2: SgfSL wt (two-domain laccase, Streptomyces griseoflavus Small Laccase) (Streptomyces griseoflavus; I170F) (protein)
chain: B1 chain with A131F
notes: as for B1
B2: in the data set “purified protein [1]”, the Km was 200 ± 40 µM, the catalytic constant (kcat) was determined as 0.08 ± 0.01 s⁻¹ and the kcat/Km was 400 M⁻¹ s⁻¹.

B3: SgfSL wt (two-domain laccase, Streptomyces griseoflavus Small Laccase) (Streptomyces griseoflavus) (protein)
chain: B1 chain with A131I
notes: as for B1
For the protein B3, in the data set “purified protein [2]”, the Km amounted to 5200 ± 110 µM, the kcat amounted to 0.8 ± 0.09 s⁻¹ and the kcat/Km is 150 M⁻¹ s⁻¹.

(Values after PMC6650940, “Investigations of Accessibility of T2/T3 Copper Center of Two-Domain Laccase from Streptomyces griseoflavus Ac-993” (International Journal of Molecular Sciences, 2019).)
